Substrate in data set [1]: CC1=C(/C=C/C(C)=C/C=C/C(C)=C/CO)C(C)(C)CCC1
Briefly: Retinol dehydratase assay ([3H]-retinol to [3H]-AR, HPLC radiomatic detection); kinetic studies. It counts as biochemical, Spodoptera frugiperda. The settings on record: 24.0 °C.

Substrate in data set [2]: Nc1ncnc2c1ncn2[C@@H]1O[C@H](COP(=O)(O)OS(=O)(=O)O)[C@@H](OP(=O)(O)O)[C@H]1O
Briefly: purified protein, by the assay type. The settings on record: other: purified recombinant retinol dehydratase, [3H]-retinol assay, n=3; 24.0 °C.

The results in this text go back to patent US5928931A, “Isolation, purification and cloning of retinol dehydratase” (Cornell Research Foundation, Inc., priority 1997, dated 1999).

Broadly, the Km is the substrate concentration at which the rate is half of its maximum.

B1: retinol dehydratase (Spodoptera frugiperda) (protein)
chain: MEKQQDLPFPYEFRELNPEEDKLVKANLGAFPTTYVKLGPKGYMVYRPYLKDAANIYNMPLRPTDVFVASYQRSGTTMTQELVWLIENDLNFEAAKTYMSLRYIYLDGFMIYDPEKQEEYNDILPNPENLDMERYLGLLEYFSRPGSSLLAAVPPTEKRFVKTHLPLSLMPPNMLDTVKMVYLARDPRDVAVSSFHHARLLYLLNKQSNFKDFWEMFHRGLYTLTPYFEHVKEAWAKRHDPNMLFLFYEDYLKDLPGCIARIADFLGKKLSEEQIQRLCEHLNFEKFKNNGAVNMEDYREIGILADGEHFIRKGKAGCWRDYFDEEMTKQAEKWIKDNLKDTDLRYPNMEL
With B1, the Michaelis constant (Km) in data set [1] (other: BSA carrier, second condition as printed) turned out to be 0.05 µM; in data set [1] (other: n=5, free retinol from carrier protein affinities), 0.001 µM; in data set [1] (other: native retinol dehydratase 0.1 μg/assay, 3H-retinol, carrier BSA or CRBP, free retinol, representative experiment, non-linear regression) it was 0.00066 µM; in data set [1] (other: with 2×10^-7 M CRBP-1), 0.025 µM; in data set [1] (other: with 10^-3 M BSA) it was 0.4 µM; in data set [2] it was 0.26 ± 0.05 µM.
